Results published in PMC4161341 (PLoS ONE, 2014).
Numbering of substitutions follows the chain as printed.

B1: L1-E2 (VHH)
VHH: EVQLQASGGGLVQPGGSLRLSCAASGFSISSATMSWVRQAPGKGLEWVSTVQDGAGIISSADSAKARFTISRDSAKNTLYLQMNSLKPEDTAVYYCRTVVFGRILRGQGTQVTVSS
notes: llama sdAb, only member of the L1-E2 family; also called sdAb L1-E2
B2: L1-H2 (VHH)
VHH: EVQLQASGGGLVQAGGSLRLSCAASGRTLSTGVMGWFRQLPGKEREFVARITWIAGSSLYADSVKGRFTISRDNTNNTVYLQMNALKPEDTAVYYCAANLAGNSWPYKTPMDYDSWGQGTQVTVSS
notes: llama sdAb of the L1-H2 family; also called sdAb L1-H2
B3: L1-C5 (VHH)
VHH: EVQLQASGGGLVQAGGSLRLSCIASGRAFSTTNMGWFRQAPGKEREFVTRVNWSGGVTSYADSVKGRFTLSRDYTKNTVYLQMNSLKPEDTAVYYCAGSTVWSTDRAHYNYWGQGTQVTVSS
notes: llama sdAb of the L1-H7 family; has a single N to Y substitution in framework 3 not seen in other members of the family; also called sdAb L1-C5
B4: L1-G2 (VHH)
VHH: B3 VHH with I23T, Y74N, N84D, A107K
notes: llama sdAb of the L1-H7 family; also called sdAb L1-G2
B5: L1-E6 (VHH)
VHH: B3 VHH with S63P, Y74N, R106G
notes: llama sdAb of the L1-H7 family; also called sdAb L1-E6
B6: L1-G2+ (VHH)
VHH: B3 VHH with I23T, T49C, L70C, Y74N, N84D, A107K
notes: also called disulfide mutant of L1-G2
B7: L1-H7 (VHH)
VHH: B3 VHH with Y74N, Q114R
notes: llama sdAb of the L1-H7 family; also called sdAb L1-H7

What follows are binders tested against T1, Vaccinia Virus, Western Reserve, L1R Protein with C-Terminal Histidine Tag (Vaccinia virus, strain Western Reserve, UniProt P07612) (assay: SPR; […] (10 µg/ml, […], dissociation 600 s; […]). Details: both partners purified.
T1 construct: also called L1 antigen; recombinant L1 antigen; source: obtained through BEI Resources (NR-2625), recombinant from baculovirus

Binder	Kd [nM]	koff [s⁻¹]	kon [M⁻¹ s⁻¹]
B1	0.7	0.0045	6.5e+06
B2	1.8	0.0021	1.2e+06
B3	4	0.032	7.2e+06
B4	1.9	0.001	530000
B5	2.6	0.001	390000
B6	1	0.0021	2.1e+06
B7	1.5	0.00087	560000
